Test results from patent publication US20260216242A1 (ALMAC DISCOVERY, published 2026).

T1: human ALPI (intestinal alkaline phosphatase) expressed on the surface of CHO cells (human, UniProt P09923 20-503)
T1 sequence (looked up): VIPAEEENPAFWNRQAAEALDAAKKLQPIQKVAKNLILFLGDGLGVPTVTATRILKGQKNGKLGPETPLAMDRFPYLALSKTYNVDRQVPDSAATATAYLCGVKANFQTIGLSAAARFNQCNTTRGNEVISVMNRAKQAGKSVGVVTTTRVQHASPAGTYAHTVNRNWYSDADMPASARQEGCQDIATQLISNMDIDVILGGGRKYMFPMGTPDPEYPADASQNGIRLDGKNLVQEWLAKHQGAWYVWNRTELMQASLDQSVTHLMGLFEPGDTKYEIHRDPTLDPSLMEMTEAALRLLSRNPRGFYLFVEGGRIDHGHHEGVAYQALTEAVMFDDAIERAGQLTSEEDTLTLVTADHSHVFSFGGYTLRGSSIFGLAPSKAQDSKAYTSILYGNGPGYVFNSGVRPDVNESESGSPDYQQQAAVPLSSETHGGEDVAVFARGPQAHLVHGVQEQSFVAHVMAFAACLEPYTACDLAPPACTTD

T2: human ALPL (tissue non-specific alkaline phosphatase) expressed on the surface of CHO cells (human, UniProt P05186 18-501)
T2 sequence (looked up): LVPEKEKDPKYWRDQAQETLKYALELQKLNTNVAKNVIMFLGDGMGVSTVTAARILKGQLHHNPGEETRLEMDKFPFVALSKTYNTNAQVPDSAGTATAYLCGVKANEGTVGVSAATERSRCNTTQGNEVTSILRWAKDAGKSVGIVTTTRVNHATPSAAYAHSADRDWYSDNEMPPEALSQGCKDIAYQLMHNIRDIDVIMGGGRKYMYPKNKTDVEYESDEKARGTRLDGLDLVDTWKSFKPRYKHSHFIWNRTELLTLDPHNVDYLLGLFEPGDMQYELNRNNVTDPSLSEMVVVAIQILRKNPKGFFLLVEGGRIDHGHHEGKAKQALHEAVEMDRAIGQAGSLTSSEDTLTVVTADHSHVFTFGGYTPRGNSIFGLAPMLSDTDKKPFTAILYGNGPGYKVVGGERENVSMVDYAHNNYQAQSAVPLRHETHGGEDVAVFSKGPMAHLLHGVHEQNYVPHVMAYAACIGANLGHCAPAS

B1: D10 E10-hFc (S239/442C T366Y/Y407T), [G4S]3 linker, MC-vc-PAB-MMAE conjugate, #636 (Fc fusion, DAR 4)
chain 1: QVQLVESGGGLVQPGGSLRLSCAASGSIFSVNTMGWYRQAPGKQRDLVAVATSGGTIHYADSVKGRFTISRDNAKNTVYLQMNSLKPEDTAVYYCNLVVPYGMIAGDHDYWGQGTKVTVSSGGGGSGGGGSGGGGSEPKSSDKTHTCPPCPAPELLGGPCVFLFPPKPKDTLMISRTPEVTCVVVDVSHEDPEVKFNWYVDGVEVHNAKTKPREEQYNSTYRVVSVLTVLHQDWLNGKEYKCKVSNKALPAPIEKTISKAKGQPREPQVYTLPPSRDELTKNQVSLYCLVKGFYPSDIAVEWESNGQPENNYKTTPPVLDSDGSFFLYSKLTVDKSRWQQGNVFSCSVMHEALHNHYTQKSLCLSPGK
chain 2: QVQLVESGGGLVQAGGSLRLSCAVSGRALSDYNIGWFRQAPGKEREFVARKTWDGSSTRYDDSVKGRFTVSIEDAKNTAYLQMSSLKTEDTAVYYCAAGRYSRARGWEYDYWGQGTQVTVSSGGGGSGGGGSGGGGSEPKSSDKTHTCPPCPAPELLGGPCVFLFPPKPKDTLMISRTPEVTCVVVDVSHEDPEVKFNWYVDGVEVHNAKTKPREEQYNSTYRVVSVLTVLHQDWLNGKEYKCKVSNKALPAPIEKTISKAKGQPREPQVYTLPPSRDELTKNQVSLTCLVKGFYPSDIAVEWESNGQPENNYKTTPPVLDSDGSFFLTSKLTVDKSRWQQGNVFSCSVMHEALHNHYTQKSLCLSPGK
modifications: MC-vc-PAB-MMAE on Cys of S239C and S442C (EU numbering)
notes: Biparatopic knob-into-hole VHH-hFc heterodimer, DAR 4; also called D10-E10 hFc-vcPAB-MMAE; D10-E10 hFc-vc-MMAE
B2: D10 F05-hFc (S239/442C T366Y/Y407T), [G4S]3 linker, MC-vc-PAB-MMAE conjugate, #637 (Fc fusion, DAR 4)
chain 1: QVQLVESGGGLVQPGGSLRLSCAASGSIFSVNTMGWYRQAPGKQRDLVAVATSGGTIHYADSVKGRFTISRDNAKNTVYLQMNSLKPEDTAVYYCNLVVPYGMIAGDHDYWGQGTKVTVSSGGGGSGGGGSGGGGSEPKSSDKTHTCPPCPAPELLGGPCVFLFPPKPKDTLMISRTPEVTCVVVDVSHEDPEVKFNWYVDGVEVHNAKTKPREEQYNSTYRVVSVLTVLHQDWLNGKEYKCKVSNKALPAPIEKTISKAKGQPREPQVYTLPPSRDELTKNQVSLYCLVKGFYPSDIAVEWESNGQPENNYKTTPPVLDSDGSFFLYSKLTVDKSRWQQGNVFSCSVMHEALHNHYTQKSLCLSPGK
chain 2: QVQLVESGGGLVQAGGSLRLSCAASGRAFGDYNIGWFRQAPGKEREFVARRTWDGSSTRYDDSVKGRFTVSIDNAKNTAYLQMNSLKTEDTAVYYCAAGRYSRVRGWEYDYWGQGTQVTVSSGGGGSGGGGSGGGGSEPKSSDKTHTCPPCPAPELLGGPCVFLFPPKPKDTLMISRTPEVTCVVVDVSHEDPEVKFNWYVDGVEVHNAKTKPREEQYNSTYRVVSVLTVLHQDWLNGKEYKCKVSNKALPAPIEKTISKAKGQPREPQVYTLPPSRDELTKNQVSLTCLVKGFYPSDIAVEWESNGQPENNYKTTPPVLDSDGSFFLTSKLTVDKSRWQQGNVFSCSVMHEALHNHYTQKSLCLSPGK
modifications: MC-vc-PAB-MMAE on Cys of S239C and S442C (EU numbering)
notes: Biparatopic knob-into-hole VHH-hFc heterodimer, DAR 4; also called D10-F05 hFc-vcPAB-MMAE; D10-F05 hFc-vc-MMAE

Assays:
[1] = molecular target: T3, human ALPPL2 (alkaline phosphatase, germ cell type) expressed on the surface of CHO cells (human, UniProt P10696 20-503); test: cell-based or functional assay
T3 sequence (P10696 20-503): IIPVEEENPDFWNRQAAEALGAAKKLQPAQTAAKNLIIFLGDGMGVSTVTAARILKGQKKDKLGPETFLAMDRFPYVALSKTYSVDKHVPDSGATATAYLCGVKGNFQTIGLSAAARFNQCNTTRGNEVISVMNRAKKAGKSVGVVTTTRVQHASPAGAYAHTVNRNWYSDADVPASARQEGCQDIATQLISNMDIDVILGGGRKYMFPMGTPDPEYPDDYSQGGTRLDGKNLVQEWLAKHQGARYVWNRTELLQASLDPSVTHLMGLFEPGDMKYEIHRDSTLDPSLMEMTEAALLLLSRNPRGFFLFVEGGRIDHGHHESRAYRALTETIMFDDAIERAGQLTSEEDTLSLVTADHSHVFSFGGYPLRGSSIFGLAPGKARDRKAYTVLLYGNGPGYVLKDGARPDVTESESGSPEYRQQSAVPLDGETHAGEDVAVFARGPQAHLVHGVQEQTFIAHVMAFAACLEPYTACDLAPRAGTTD

[2] = molecular target: T1, human ALPI (intestinal alkaline …); test: cell-based or functional assay
[3] = molecular target: T2, human ALPL (tissue non-specific …); test: cell-based or functional assay
[4] = molecular target: T1, human ALPI (intestinal alkaline …); test: flow cytometry, CHO-ALPI cells
[5] = molecular target: T2, human ALPL (tissue non-specific …); test: flow cytometry, CHO-ALPL cells
[6] = molecular target: T4, human ALPP (alkaline phosphatase, placental type) expressed on the surface of CHO cells (human, UniProt P05187 23-506); test: flow cytometry on CHO-ALPP cells, apparent KD (KDapp)
T4 construct: also called CHO-ALPP; hALPP
T4 sequence (P05187 23-506 limits assumed): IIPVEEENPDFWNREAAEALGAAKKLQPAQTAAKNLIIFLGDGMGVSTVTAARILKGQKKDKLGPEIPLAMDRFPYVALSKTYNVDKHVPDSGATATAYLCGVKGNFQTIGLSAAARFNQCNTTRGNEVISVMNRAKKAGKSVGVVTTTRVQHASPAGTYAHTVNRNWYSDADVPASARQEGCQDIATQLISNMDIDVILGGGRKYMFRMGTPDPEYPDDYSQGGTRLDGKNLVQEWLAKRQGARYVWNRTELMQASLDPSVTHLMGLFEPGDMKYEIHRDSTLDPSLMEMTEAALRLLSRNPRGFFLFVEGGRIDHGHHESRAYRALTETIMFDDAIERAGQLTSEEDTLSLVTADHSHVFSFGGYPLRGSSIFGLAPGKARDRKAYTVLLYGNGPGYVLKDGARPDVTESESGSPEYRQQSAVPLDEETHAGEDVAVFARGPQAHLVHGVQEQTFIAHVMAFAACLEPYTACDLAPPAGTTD
Procedure: (§1) Biparatopic VHH-hFc drug conjugates were assessed for human ALPP, ALPPL2, ALPI and ALPL cell-surface binding by flow cytometry. Binders were screened on CHO cells stably expressing human ALPP, ALPPL2, ALPI or ALPL.
(§2) Cell surface binding of test agents to hALPP isoforms was characterized in four CHO-ALPP isoform transfectant cell lines (CHO-ALPP, CHO-ALPPL2, CHO-ALPI and CHO-ALPL) and the resulting KDapp values determined. Adherent cells were detached from tissue culture flasks by incubating with 0.1% EDTA/PBS solution at 37° C. for […] or until cells detached easily. Cells were re-suspended in ice-cold PBS/2% FCS in 15 ml tubes and centrifuged at 1700 rpm for 5 mins at 4° C. Supernatant was removed and the cell pellet re-suspended in PBS/2% FCS. […] Cells were incubated with 100 μl of test agents at a range of concentrations, plus controls for 1 hr on ice. The sample plate was centrifuged at 1700 rpm for 5 mins at 4° C. The supernatant was removed, and a wash performed by re-suspending the cell pellets in 0.25 mL of ice-cold PBS/2% FCS using a multichannel pipette. Samples were again centrifuged at 1700 rpm for 5 min at 4° C. Supernatant was removed and two further washes performed as described. After the final wash and centrifugation step, excess liquid was removed by blotting the plate on tissue paper. Binding of VHH-hFc agents was determined by adding 100 μl of Fitc-anti-human Ab (ThermoFisher) and incubating for 30 mins on ice in the dark. Wash steps were performed as described previously. All cell pellets were finally re-suspended in 0.28 ml of ice-cold PBS/2% FCS and left on ice in the dark prior to analysis on a Merck-Millipore Guava EasyCyte HT or Thermo Fisher Attune N×T flow cytometer.

[7] = molecular target: T3, human ALPPL2 (alkaline phosphatase, …); test: flow cytometry on CHO-ALPPL2 cells, apparent KD (KDapp)
Procedure: as §1, §2

| Binder | IC50 at 96 h, cell-killing of CHO-ALPPL2 cells [1] [nM] | IC50 at 96 h, cell-killing of CHO-ALPI cells [2] [nM] | IC50 at 96 h, cell-killing of CHO-ALPL cells [3] [nM] | binding result [4] | binding result [5] | Kd [6] [nM] | Kd [7] [nM] |
| --- | --- | --- | --- | --- | --- | --- | --- |
| B1 | 12.5 | > 1000 | > 1000 | no binding (tested: 350 nM (highest concentration)) | no binding (tested: 350 nM (highest concentration)) | 6.8 | 4.7 |
| B2 | 13 | > 1000 | > 1000 | no binding (tested: 350 nM (highest concentration)) | no binding (tested: 350 nM (highest concentration)) | 7.4 | 3.5 |
